Here are results for two molecules from patent US20060241040A1 (published 2006).

For test [1], the target named is T1, TLR4:Fc fusion protein (entire extracellular domain of hTLR4, amino acids 1-632, fused to the Fc portion of … (human; mouse, UniProt P01863 98-330 = IgG part).
T1 construct: domain: C-terminal 233 amino acid Fc portion; Secreted by retrovirally transduced HEK293 cells; also called T4:Fc; TLR4:Fc chimera
The test can be described thus: depletion of human serum with TLR4:Fc loaded protein A beads, read out on NF-κB reporter cells (FIG. 6A). On the procedure: Human serum was collected from healthy volunteers using standard serum Vacutainers™ blood collection tubes (Becton Dickinson) and clotted for 30 minutes at room temperature. The blood clot was removed by centrifugation and serum stored at −20° C. in 1 ml aliquots until use. MD-2 was removed from serum using immunoaffinity techniques using chimeric antibody-like proteins bound to protein A Sepharose™ beads (PAS). Human antibodies can potentially compete with the TLR chimeras for binding sites on protein A beads. Therefore, they were removed from serum by two preclearing steps, of two hours each, with 1/10 the volume of packed PAS beads.
HEK293 cells that had been transduced with retrovirus encoding the TLR:Fc fusion proteins were grown in protein free medium and served as the source of conditioned medium. TLR4:Fc and TLR2:Fc were captured from 50-100 ml of medium using 40 μl of packed PAS/ml for one hour at 4° C. Coated beads were then added to sera that had been precleared with PAS alone for 1 hour at 4° C. Human serum was diluted in DMEM to a final concentration of 20% v/v before use on reporter cells. Before each conjugation/treatment step, the beads were washed with 20% ethanol in PBS followed by equilibration in DMEM. Reconstitution with MD-2 was performed by adding the indicated amounts of recombinant purified MD-2 to the TLR4:Fc depleted stimulating media. […]

The target in test [2] is T1, TLR4:Fc fusion protein (entire …). The test can be described thus: indirect ELISA-like assay: TLR4:Fc captured on protein A coated plate, MD-2 titrated 0.1 to 50 nM, Ni-HRP detection, absorbance at 450 nm; without LPS (dotted line). On the procedure:
FIG. 4A is a line graph of MD-2^6xHis binding to TLR-4:Fc. MD-2^6xHis was added in titrated amounts (0.1 to 50 nM). To control for non-specific binding to protein A, 50 nM of MD-2 was plated in the absence of TLR4:Fc (“50”). […] The apparent […] of this interaction is of ˜12 nM.
To determine the Kd for the interaction between TLR4 and MD-2, an indirect ELISA-like binding assay was developed. Fifty μl of purified TLR4:Fc at 20 μg/ml (FIG. 4A) or at the concentration indicated in FIG. 4B was plated on protein A coated, high-protein binding 96 well plates. […] MD-2 bound to TLR4:Fc was detected using Ni-HRP (1:2,000 in PBS-Tween, Sigma), and developed by incubation with its chromogenic substrate per the manufacturer's instructions (DAKO, Carpinteria, Calif.). Each condition was measured in triplicate; the absorbance of each sample was measured at 450 nm; the results are presented as the average reading±SD.
In FIG. 4A, saturating amounts of TLR4:Fc were adsorbed to protein A coated 96 well plates and purified soluble MD-2 was added in titrated amounts. The 6×His tag present at the C terminus of MD-2 was detected using a Ni based HRP labeled reagent, and the presence of MD-2 bound to TLR4 was detected using a chromogenic substrate. […]
A general note: An ELISA detects its analyte on a solid surface through an enzyme-linked reagent.

T1 sequence (P01863 other isoform, or with tags, fused parts or gaps limits assumed): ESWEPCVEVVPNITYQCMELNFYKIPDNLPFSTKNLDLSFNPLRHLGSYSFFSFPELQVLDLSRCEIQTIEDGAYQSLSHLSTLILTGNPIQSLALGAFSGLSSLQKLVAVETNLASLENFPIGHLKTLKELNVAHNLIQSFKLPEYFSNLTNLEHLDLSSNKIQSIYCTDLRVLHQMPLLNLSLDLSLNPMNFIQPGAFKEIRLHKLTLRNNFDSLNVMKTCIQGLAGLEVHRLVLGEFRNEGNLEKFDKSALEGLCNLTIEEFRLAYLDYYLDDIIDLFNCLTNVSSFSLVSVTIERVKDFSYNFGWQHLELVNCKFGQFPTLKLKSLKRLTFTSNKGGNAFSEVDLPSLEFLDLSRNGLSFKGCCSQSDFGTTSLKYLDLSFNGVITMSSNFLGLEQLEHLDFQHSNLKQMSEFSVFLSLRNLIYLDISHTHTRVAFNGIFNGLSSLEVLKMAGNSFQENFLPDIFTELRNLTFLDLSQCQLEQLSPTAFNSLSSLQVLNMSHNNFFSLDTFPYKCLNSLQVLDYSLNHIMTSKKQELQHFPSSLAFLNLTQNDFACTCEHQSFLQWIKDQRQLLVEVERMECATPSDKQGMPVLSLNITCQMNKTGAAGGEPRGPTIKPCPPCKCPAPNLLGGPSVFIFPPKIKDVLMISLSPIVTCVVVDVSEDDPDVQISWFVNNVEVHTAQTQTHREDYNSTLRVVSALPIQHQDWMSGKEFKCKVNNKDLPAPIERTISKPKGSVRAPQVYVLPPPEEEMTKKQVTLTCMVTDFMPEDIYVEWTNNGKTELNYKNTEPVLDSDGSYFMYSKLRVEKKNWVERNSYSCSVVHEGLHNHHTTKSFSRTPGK

B1: endogenous soluble MD-2 in serum of healthy human donors (ligand)
chain: QKQYWVCNSSDASISYTYCDKMQYPISINVNPCIELKGSKGLLHIFYIPRRDLKQLYFNLYITVNTMNLPKRKEVICRGSDDDYSFCRALKGETVNTTISFSFKGIKFSKGKYKCVVEAISGSPEEMLFCLEFVILHQPNSN
notes: Natural protein in serum; also called sMD-2; serum MD-2
Consider B1, for which the binding result in test [1] is given as “binds”.

B2: C-terminally 6×His tagged human MD-2, baculovirus-derived (Sf9 insect cells), purified (ligand)
chain: QKQYWVCNSSDASISYTYCDKMQYPISINVNPCIELKGSKGLLHIFYIPRRDLKQLYFNLYITVNTMNLPKRKEVICRGSDDDYSFCRALKGETVNTTISFSFKGIKFSKGKYKCVVEAISGSPEEMLFCLEFVILHQPNSNHHHHHH
notes: Purified from supernatants (secreted); also called MD-2^6xHis; MD-2^6×His
One may read the Kd as the constant that tells how readily two partners part at equilibrium. Regarding B2, in test [2], the Kd was ~12 nM.
